The text below walks through data of patent US20260241035A1, “FUNCTIONAL NUCLEIC ACID MOLECULE AND METHOD” (THE UNIVERSITY COURT OF THE UNIVERSITY OF EDINBURGH, priority 2022, published 2026).

The data set deals with GSC7 cells. The data set is described as follows: Nano-Glo Dual-Luciferase Reporter (Nanoglo DLR) assay of enhancer activity, fold change to mCMV. In kind it is cell-based, human. The settings on record: expression fold change of the individual enhancer compared to mCMV. The text has this: We chose an arrayed library format, with 160 bp enhancer fragments individually cloned into separate plasmids and arrayed in 96 well plates. These 160 bp were synthesized as a single pool of oligos, then randomly cloned into the plasmid and isolated. 20 bp×2 were needed for PCR amplification of the pool and so a library of 200 bp fragments was synthesized (Twist Biosciences). To meet our oligo synthesis strategy, ChIP-seq peaks expressed by GSCs were merged into a single oligo. This oligonucleotide pool was PCR-amplified (using limited cycles to reduce bias and ‘jackpot’ products meaning products which are easier to amplify will overtake the oligonucleotide pool) and cloned into the expression vector by an efficient Golden Gate reaction. 4579 individual plasmids were then randomly picked, isolated and plated as an arrayed plasmid DNA library on 96 well plates (×48). The bacterial colony picking and production of plasmid minipreps were supported by the Edinburgh Genome Foundry (S. Rosser). This library was then screened using the optimised Nanoglo DLR assay (Nano-Glo Dual-Luciferase Reporter Assay, Promega) in 384 well format. Each plate was transiently transfected together with PGK-FFLuc in a 1:10 ratio into GSC7 cells. 2 days later a Nanoglo DLR assay was performed and assayed on a plate reader.
Cells were seeded in 384 well plates using a multidrop and transfected the following day using the CyBio Felix. Two days later the experiment was terminated with a Nanoglo DLR assay and all hits with a fold change to mCMV greater than 10 were Sanger sequenced and mapped back to the genome.
Cells were seeded at the required density. The following day the transfection was carried out. For this the Plus reagent and Lipofectamine LTX (Life Technologies, 15338030) were each diluted in half the volume of Opti-MEM I Reduced-Serum Medium (further referred to as Optimem) (Life Technologies, 31985062). Following this step, the Plus reagent/Optimem premix was added to all DNA samples followed by the Lipofectamine LTX/Optimem premix. The transfection mix was incubated for 5 min at room temperature and then carefully dropped on the cells. Generally, no media change was carried out. Cells were analysed two days following transfection.
This assay consists of two steps. The transfection was carried out using a normalisation plasmid PGK-Firefly-Luciferase (Promega, E5011) that was transfected in a 1/10 ratio with the plasmid of interest. First, the Firefly Luciferase activity is measured which allows to normalise to transfection efficiency. In a second step, the activity of Nanoluc is determined which is the readout of the plasmid of interest. Cells were washed 3× with PBS and 20 μl was left in the 96 well plate after the final wash (25 μl in 384 well). Oneglo buffer was added and the plate was shaken for 5 min at 480 rpm to allow cell lysis. 20 μl cell lysate in 96 well format or 25 μl cell lysate in 384 well format was then transferred into the corresponding opaque white plate and luminescence was measured at for 0.1 s per well using the Ensight Multimode Plate Reader. For the following Nanoluc reaction in a 96 well format 2 μl cell lysate was transferred into an opaque white plate containing 40 μl PBS, and 20 μl Stopglo buffer, supplemented with substrate, was added to each well. In a 384 well format 20 μl Stopglo buffer containing substrate were added on top of the undiluted cell lysate. The plate was shaken again for 5 min at 480 rpm to quench the firefly luciferase reaction and ensure good mixing. Nanoluc activity was measured for 0.1 s per well, again using Ensight Multimode Plate Reader.
Data obtained by the Nanoluc reaction was normalised to Firefly reaction to account for well-to-well variability of transfection efficiency. Normalised data were used to calculate the fold change to the empty vector control mCMV.

B1: CSE034: clustered SOX dimer motif enhancer, SEQ ID NO: 42 (nucleic acid)
DNA: GCCATAATTTGAACCTCGGAGTGCCCCACTGACAGCCAACGACACCAGAGGGTCCCTTTGTATGTAAGGATTGCATGACTCCAGTTGAATGACCCAAGCCGGGGACAAACAGGAAAGAACCCAGCAGCTCTGGAGGCCACTTGAGCTGACTGTCAAATGCTCTGGGCTGATTAACGACTACGAACTTCAGGGAAGACAAGTGTGCTTTGATGCCACAGAGCTATCCTGGGCCTGTACAGGCCCGTTTCTGCTCTGAATGAGGAAGCTGTACTTTGCAGGCACCCGGCAGAACAAGAATAGGGCCTAAGATACCTGAATGAAGGGCACAGAGGAAGTACAAAATACAGTCATTGTTGGAGCTAGAAGCTGGTGCCAGGCTACGAGGGGGCCCAGTGGCCAAGCATTATG
Turning to B1, the “Fold change (Median)” value is given as 14.3 fold.

B2: CSE088: clustered SOX dimer motif enhancer, SEQ ID NO: 44 (nucleic acid)
DNA: CTCGATACCCACATTCCTAACCTTTTAATGCCAAGCAGCCTATAAGCATGTCAAATTTTACTCATGTTCCTGCTCTTTCCACTCAAGTTGGCTTTGTGGGTTGCTGGTTTTATCAAAATTGAGTGAGAGTGTGTTCAATACAATGTTGGATTCATTAGGGAGAAAAAAGCCAAATAAAAACCTTGCTTCTTCAATGCCAGGAGCTTACAAAGACATATAAACCATGAGGAATTCCAAGGACTTGCTCAGAAGCCGTTCTGCAAATGCATTTCTTGAACAAAGGGCCAATGTTCCTTTCAGGGAAGAGCGCGGGACTGGTTTCCGGCATTTTTCTTTAAATCATTAGGACCATGCCAGCAAACAAACATATACAGCCCCTGGGAGAAAGAATCTCATTCAACACAGCTTACAAGAGTTTGATTATTAGGGAGGGGTGCTTCATGGCACGTGCCTCACCAGCCGGCCCCCAAATGTACAGATCTGTTTAAAGGGCTTTATTGATGGTGGCCGCAGACAGATAGAGCTTGTGAGGAGAACTGACATCCCATGGATACTAACATATCAGCATCATCCTGACCAGCACACAATCCAGTCAGAGAGAGCTGAAAAGTCTGCCTCATTCCCTTGAAAATGTGCTTCTTAAGACAAATAAAATATAGAAATAAGAAATTCACCTC
As to B2, the “Fold change (Median)” value was 16.5 fold.

B3: CSE005: clustered SOX dimer motif enhancer, SEQ ID NO: 41 (nucleic acid)
DNA: TCCCTTGGAAAGTGTTCAAATCAAAGCTACCTTTATACCACACTCCTTTGTGTCCTGATGTCCTGAATAGTGAGATTATCGGGTACACCCACCTGTTCCTGCACTTCCTTCCTGCTCAATTTAAATAAACAATGAGCTGTTTTTCTTCTTGACAAAGAGCCAGTCTATACAACAGCAGCAGGAAGATTACTTTCTATCTGTATGCAAACAGATACATAGCTGAGTTCTCTCCAATCCCCGGGAAAAGACCCTTTTAACTAAATGACTTATGCTTCT
On to B3, for which the “Fold change (Median)” value was found to be 11.5 fold.

B4: CSE025: clustered SOX dimer motif enhancer, SEQ ID NO: 45 (nucleic acid)
DNA: ATGGACAATGGCAGCCTGAAAGAATATGAGGGAGGGTCACCAGTGATGGACATGGTTTGGGGAGAGCCCAAGAATTGAAGGGGACTTGGGATTGTTGACAGACCTTCCACATCTCAGAATGGGGGAAGTGGTTTCTTTTTTCCTCATTCTCCAAGGCTTCTCAGTCTCAGAGACCCCAAGAGATGCCATTAATACAGATTCCTCCTCTGGCTCCTTTGAGACATTTGCTTTTGAAGGACCTGGAAGAGAAAGCTCTTTGTATGTGGCCAGAATAAACTCATTGTACACCCAAACAATTAACTCCTCAATGGACTTGCCAGCCCCTTGAAAGGCCTGGCCCTGCGTCCCTGGACCTCTTGGGCTCTATTCAGTCCCTTAAGCACACCAATGTTTTTGGGTTTTTGTTTTGTTTTGTTTGTTATTCTGAAAAGTCTTTCCCTGAGAATAGTCTGAGCGGATCAACATTGTCCTCAGCCTGGCATTTATCTCTCCTCGCCAGCGAATGTCAATCAGGAATCAAAAAGCCAAACAGAGGAGGCTTTGAACGGTGTCATCGGGGGTCGAAGTGACTTCCAGCTGTCTGTGCGTGGGCCAGGCCTTCTCGCAGGGCAAGGAATTGTGCTGTCACACAAACCCACTGTCTGTATAGGCTCACAGAGCCCA
Take B4: the “Fold change (Median)” value stood at 21.3 fold.

B5: ID4328: enhancer fragment, SEQ ID NO: 7 (nucleic acid)
DNA: TACAATCTATTCTCCATAGTCATCAGAGTTTCTTTAAAGGCACGGTTCAGACAATGGCACCCTCTGTTCCAAACCCTCCAGGGCTTCCTATTTCACTTAGCATAAAAACCAAAGTCCTCACAATGACCGACAAGTCTTCACACAATGTGCCCCTTCATTG
As to B5, the “Fold change (Median)” value worked out at 100.7 fold.

B6: CSE014: clustered SOX dimer motif enhancer, SEQ ID NO: 47 (nucleic acid)
DNA: GCCTTTTAGCTGATTAACAAATACAGTGAATTTAACTTTGTAGATTCTTAACATTTAAAGACAACAGTCTAAGGCAATTTAAAGTATATTCTGCCAATCAGTTGTTGAGTTAGACCACCCATAGCCTTTTTTTATTCTTCATTGTTTGAATAATATGGGAGGAAATTTAGTGTATACTCTCTTCTTCCTGTATTTTCCAGTTAGATTAAGCTGTTGTCTTCACAATTGCCTCCCAGCTGCTGTGACTTGTGAAAACAACAGACCCTGCTCTGTTGTCTGGAGAAAGCCGGGATTGTTATGAGTAACTTTATTGCAGGCACATGAGTGTGTTAAGACTTTAAAACACGCTCAAATGTCATGTGCACACCCAATGACGGGCAAGAATAATTATGAAAAAACAAGAAATCTATGTCTATGAAACCGTGTTGGACAAAATGGGCCATTCATTGTGTTCCCCTGGGAATGCCTGGACTCTGCAGTCAGAAAACAAAAAAGGCACTTTTTTCCTGCCGTAGGCTGAATGCTTAGCTTTGCCATCTGAGCCCTAAGAAAACATGGGCCCCTCTACTGCTGGCGCACCCACGCACACTAAAAAATATTAATGCCTCTCTCTCCTTACTTTTTTCCAGGCATTCCCTCGTGTAGGCTGTAGCCAATATAATGTCAACACAAA
For B6, the “Fold change (Median)” value was 27.7 fold.

B7: CSE033: clustered SOX dimer motif enhancer, SEQ ID NO: 46 (nucleic acid)
DNA: CTGGGGAACAAAACTTAGATCTTGATCATCCAGCATAGCTCTGGCATGCTGAGCGTGTGATACACCTGTCTCTACCGTCAGGCAAACGAGTGGGTTCACAGGCAGAGGCCTGCCCTGCCAAACAATGCTCCCCTTTGTCCCCGCCCAGGGCTCAGGAGCCGCAAGGAAGCCAAATCCATCAGCACTTGTCAGGGCCCTTGATGCACACAATGCAAGTTATGATCCACAGTCCCCGGCAAAGCCCCAGGCTTCCAGCAGGCAGCATTAACTGACACGCAATGTGTCAGTCAGCCTTCTAAAAGCCAGGGGTGGGGATCCGTGCCAGGGGGCCACTGAGCTCTCATTCCCAGAAGCCAACCAGAGCC
As to B7, the “Fold change (Median)” value is reported as 20.9 fold.

B8: CSE078: clustered SOX dimer motif enhancer, SEQ ID NO: 43 (nucleic acid)
DNA: TGTCGGGCAGCCAAGACCTGTCAGGGACAAGAGTGCTGTGAGCTGCGGGCTGGTGGGTGGAAGGAGAGAGGCCCCTGGTGCTCCTGCCAAGCCAAGGAATGTGTCATTGCTGTGCTGTGCCTTCAGCCTGGCATTTGGGAACAAAGAGGTACTTTGTATGGATAACATAGACCAGGTTGTTGGGGAAGGGATCAGAGATGGGGGTAGACCCATTTTTAAAAATCTGCTCATGTCCCAGGCAAGTTTTTTTGGCAGGGATTGCAGTTGGGCTATTACAAAGAGCTGCTGTACACGAGGGGTATGTCTACTACTGTCAAATTACAGCAGCAATTATCTTGGGCACTG
For the molecule B8, the “Fold change (Median)” value was 10 fold.

B9: CSE012: clustered SOX dimer motif enhancer, SEQ ID NO: 40 (nucleic acid)
DNA: GTAGAGAATAGATTCTGTAGGGCTTTTAACCTCCACTGTTATTCCAAGGATGGGGCTCAGCTTCCTTCTTTTCCTTTCTGACTCTGTCTATATCAAGGGTCCCGTGGGTTGTTCCTTTCCATTGTGGTCTCACTGCCCAGCTTTAAGGCACCATCCTGGCACAGTGATAGGTTTACCTTTGTCTAAAAGTGTCCATTTGCATCTCTGTGGCCTTCTTGCCTGGGTGACACCCACTTGATTAGGCATTTGCCCAGTGTGAGATCAGAGTCCCTCATTTACATTTCCCCACAATAGTGAATGGCTTACAGGCTGTTCAAATACAGTTTCTAAACAGTGAATAATTCAGCCAGAAAGCCAGCCTTTTAAGGTTTGGATTTGGGGCATTTCTGAG
Regarding B9, the “Fold change (Median)” value is given as 10.3 fold.
